A short description of the data set: soluble on expression in E. coli; label from the status in PepcDB or PDB records.
With “MSDAIVVGAGPNGLAAAVALARRGLKVTVLEAADEIGGGTRTSELTVPGLLHDHCSAVHPLGVGSPFLRTLGLERYGVTWAWPDVDLAHPLDGGRAGVLVRSMERTVRGLGPDGPAWERLFAPLAEDFDALTEDLLRPVPHLPAHPVELARFGLRALQPATTVARRWRGAEARALFAGAAAHLMHPLTGPTSSAVGLMLVGAAHRFGWPVARGGSRTITDALAALLAQLGGTIETGVRVDSLDQLAAARIVMLDTAPGAAARICGDRLPGRVRSAYEGWRHGPAAFKVDLAVQDGIPWTHEACRRAGTVHLGGTLEEVVRTEAQTAGGRMPERPFVLVGQQYLADPSRSRGDVHPIWAYAHVPHGYPGDATEAVLRQIERFAPGFRDRIVGIAARSTAELARSNTNFVGGDIVGGANTARQVALRPRVALDPYSTGIPGVYLCSAATPPGAGVHGMCGANAARSALRYLDRLEHHHHHH”, the “soluble on expression in E. coli” value is given as “not soluble”. To “MSDASLKTYQKQWAYQKYWVMAHSQQHYNALRELFKGNQWSEEKVLTFHCLIEEAQAIPPTVKSLRTAYQHVWGYFKKVASQEEKDHFKDLDAQLETKSEEMLCFLQEMTAHYQPSYLLSCRLITKGP” belongs “not soluble”; to “MSDFGNPLKKFKLVFLGEQSVGKTSLITRFMYDSFDNTYQATIGIDFLSKTMYLEDRTVRLQLWDTAGQERFRSLIPSYIRDSTVAVVVYDITNSNSFHQTSKWIDDVRTERGSDVIIMLVGNKTDLSDKRQVTTDEGERKAKELNVMFIETSAKAGYNVKQLFRRIAGALPGIIKDDPVEPPNVVTMDPIRQRQIVTDEGSCWC”, “not soluble”; to “MSDGSVERGTKRAEDSLATHQLTVQYKRYYIDVNENTRGRYIKIAELGTNYKSRIILSIVAAKAIVSEISKMLALIDEPSTGEHAPKESSLIKSETLNVDGRKFYVDLKENVRGRFLRIAQMPMNPRQTRQQIAIPSDGIAEIHKVLTEYLAKFGEGHEQENTNTPKITAENKSFLFHSGKNDRGEFVRISEIKLNSGYRNAITVPMSALVDFRKELDNIIANQGK”, “not soluble”. To “MSDKIIHLTDDSFDTDVLKADGAILVDFWAEWCGPIEESDDRRYDLVGPCKMIAPILDEIADEYQGKLTVAKLNIDQNPGTAPKYGIRGIPTLLLFKNGEVAATKVGALSKGQLKEFLDANLA” belongs “soluble”; to “MSDLMQKENIVVMLTKKGFLKRLSQNEYKLQGTGGKGLSSFDLNDGDEIVIALCVNTHDYLFMISNEGKLYLINAYEIKDSSRASKGQNISELINLGDQEEILTIKNSKDLTDDAYLLLTTASGKIARFESTDFKAVKSRGVIVIKLNDKDFVTSAEIVFKDEKVICLSKKGSAFIFNSRDVRLTNRGTQGVCGMKLKEGDLFVKVLSVKENPYLLIVSENGYGKRLNMSKISELKRGATGYTSYKKSDKKAGSVVDAIAVSEDDEILLVSKRSKALRTVAGKVSEQGKDARGIQVLFLDNDSLVSVSKFIK”, “soluble”. With “MSDLNNAIQGILDDHVARGVVGVSLALCLPGEETSLYQSGYADKFNKMPMTGDHLFRIASCTKSFIATGLHLLVQDGTVDLDEPITRWFPDLPKAAQMPVRILLNHRSGLPDFETSMPMISDKSWTAQEIVDFSFRHGVQKEPWHGMEYSNTGYVLAGMIIAHETGKPYSDHLRSRIFAPLGMKDTWVGTHETFPIEREARGYMHAAADDENPQWDVSGAGDPVDGVWDSTEWFPLSGANAAGDMVSTPRDIVKFLNALFDGRILDQKRLWEMKDNIKPAFFPGSNTVANGHGLLLMRYGSSELKGHLGQIPGHTSIMGRDEETGAALMLIQNSGAGDFESFYLKGVNEPVDRVLEAIKNSRS” the entry was “soluble”; with “MSDLVSYHLDDGVATLTLNNGKVNAISPDVIIAFNAALDQAEKDRAIVIVTGQPGILSGGYDLKVMTSSAEAAINLVAQGSTLARRMLSHPFPIIVACPGHAVAKGAFLLLSADYRIGVAGPFSIGLNEVQIGMTMHHAGIELARDRLRKSAFNRSVINAEMFDPEGAMAAGFLDKVVSVEELQGAALAVAAQLKKINMNAHKKTKLKVRKGLLDTLDAAIEQDRQHML”, “soluble”; with “MSDNLVLPTYDDVASASERIKKFANKTPVLTSSTVNKEFVAEVFFKCENFQKMGAFKFRGALNALSQLNEAQRKAGVLTFSSGNHAQAIALSAKILGIPAKIIMPLDAPEAKVAATKGYGGQVIMYDRYKDDREKMAKEISEREGLTIIPPYDHPHVLAGQGTAAKELFEEVGPLDALFVCLGGGGLLSGSALAARHFAPNCEVYGVEPEAGNDGQQSFRKGSIVHIDTPKTIADGAQTQHLGNYTFSIIKEKVDDILTVSDEELIDCLKFYAARMKIVVEPTGCLSFAAARAMKEKLKNKRIGIIISGGNVDIERYAHFLSQ”, “soluble”. As to “MSDTLLLTVLLRHDQSKNLDEIQARMKAMDWWERFPGEGVEIVSWTVAMGLGQIVTLRLPPALLPRVNVELERSAWGVFRTECYPTYDFVPVRETIRERVRTGGQ”, the “soluble on expression in E. coli” value was “not soluble”.

In the case of “MSDTSYKLGITKTFPCNYLPDQQERLLIAVDERLHNSESYGWLMTQGFRRSGDQSYRPSCPNCNACQSIRVLTSDFLPSKSQKRSKKRNSHFIIKQSSQLKDSYYPLFENYINTLHQDGSMYPASFQQFESFLSCNLTQQLFIETWAPANEENGPKEDKLVCVAVTDVLSNGLSAVYTFYHPDYKANGLGVFSILTQLSLSQQMSLPYLYLGYQIDECQKMNYKDRYFPFERFIDGQWLINTKPSVNKAKIAKLEHHHHHH”, the “soluble on expression in E. coli” value is “not soluble”. As for “MSDVAVAADTTETPAAPTKASKATKASKATKASKATKAKTTKVPMVKADAAHPPFINMVTEAISSIKDRKGPSRAAILKYITTKYTLGDQANKINAHLRKALNKGLESNAFVQASGNGANGRFRLAEKTASVAKSPAAAKKDATGEKKATTTVAKKAATGEKKATTTVAKKAATGEKKATTTVAKKAAAGDKAKKTEVKVKKVKSPKKIAKSPVNKVTKSPVKKIAKSSSMKAAPKKAAAKPAKKAPAAAPEA”, the “soluble on expression in E. coli” value was “soluble”. To “MSDVMADRTPPHNIEAEQAVLGAILIDQDALTSASELLVPDSFYRTKHQKIFEVMLGLSDKGEPIDLVMMTSAMADQGLLEEVGGVSYLAELAEVVPTAANVEYYARIIAEKALLRRLIRTATHIVSDGYEREDDVDGLLNEAEKKILEVSHQTNAKAFQNIKDVLVDAYDKIELLHNQKGEVTGIPTGFTELDKMTAGFQRNDLIIVAARPSVGKTAFSLNIAQNVATKTDENVAIFSLEMGADQLVMRMLCAEGNIDAQRLRTGSLTSDDWAKLTMAMGSLSNAGIYIDDTPGIKVNEIRAKCRRLKQEQGLGMILIDYLQLIQGSGKSGENRQQEVSEISRTLKGIARELQVPVIALSQLSRGVESRQDKRPMMSDIRESGSIEQDADIVAFLYREDYYDRETENKNTIEIIIAKQRNGPVGSVELAFVKEFNKFVNLERRFEDGHAPPA” belongs “not soluble”. To “MSEAAIAKKETLVQAAAEKFESAASVVIVDYRGLTVEEVTNLRKQLRDAGVEMKVIKNSILSRAAKKVGLDGLDEVFTGPTAVAFSNDDVVAPAKIIDEFAKDAKALEIKGGVIEGKVSSVEQITALAKLPNREGLLSMLLSVLQAPVRNVAYAVKAVAEKNEEVA” belongs “not soluble”.

In the case of “MSEDRSSNGQKSWLGKLTQAFVHEPKNRQELLELLREAHQNKLLDSEALAIVEGAIQVADLQVRDIMVPRSQMISIKATQTPREFLPAVIDAAHSRYPVIGESHDDVLGVLLAKDLLPLILKADGDSDDVKKLLRPATFVPESKRLNVLLREFRANHNHMAIVIDEYGGVAGLVTIEDVLEQIVGDIEDEHDVEEDSYIKPLPSGDFLVKALTPVENFNEFFDSAFSDDEFDTVGGLVMNAFGHLPKRNEITEIGAYRFRILSADSRRIHLLRVTPISRP”, the “soluble on expression in E. coli” value was “not soluble”. With “MSEDYADLHDPNAEYTMRELSAETMGADSGRPAPRDLEITDIQTTMVDGNFPWTLVRVYTDAGVVGTGEAYWGAGVPELIERMTPFVVGENPLDIDRLFEHLVQKMSGEGSVEGVTVTAISGIEVALHDLAGKVLGVPAYQLLGGKYRDEVRVYCDCHTAAEADPEACADEAERVVDDLGYDALKFDLDVPSGLEKDRANRHLRPGEIRHKADIVAAVTERVRDRADVAFDCHWTFSGGSAKRLAAELEAYDVWWLEDPVPPENLDVQASVTESTATPIAVGENRYRVTEARRLIENQAVDIVAPDLPKVGGMRETRKIADVANQYYVPVAMHNVASPVATMASAHVGAAIPNALAVEYHSYELGWWSDLVAEDVIEDGSIEVPERPGLGITLDMDAVEEHMVDGETLFDEA”, the “soluble on expression in E. coli” value was “soluble”. For “MSEEAEAGPSPKVNGENGNGTNTFDDLYVDDKMRRMIVDLQRQWLTDYHDSREKSLVALTEKLHQEFMEDQERVRRDLLVQFKIELDQTKEELEKKHAENLKEEIEKLSEKHQRELAVAKKKQWCWQCNSEAIYHCCWNTAYCSVECQQGHWQIHRKFCRRKKSNGGAPGPVQPIAEPTQSQQ”, the “soluble on expression in E. coli” value was “soluble”.

In the case of “MSEEKKDSSRPPVRNYLKQIDDFFEQTPLRNVIADLNHFFQKGNRLLTFPVDLYEVGEELVVTAELPGIQKEQIQIEIQSEYLKVSVKEEILEEEEQTSHNYYRRERSISEASRLIKLPYSINKKAAKASYQNGVLEIRAPKLPQQHDILSID”, the “soluble on expression in E. coli” value was “not soluble”.

For “MSEESNDDKKPTTKFELERETELRFEVEASQSVQLELLAGMAEIFGTELTRNKKFTFDAGAKVAVFTWHGCSLQLSGRTEVAYVSKDTPMLLYLNTHTALEQMRRQAEKEEERGPRVMVVGPTDVGKSTVCRLLLNYAVRLGRRPTYVELDVGQGSVSIPGTMGALYIERPADVEEGFSIQAPLVYHFGSTTPGTNIKLYNKITSRLADVFNQRCEVNRRASVSGCVINTCGWVKGYGYQALVHAASAFEVDVVVVLDQERLYNELKRDLPHFVRTVLLPKSGGVVERSKDFRRECRDERIREYFYGFRGCFYPHAFNVKFSDVKIYKVGAPTIPDSCLPLGMSQEDNQLKLVPVTPGRDMVHHLLSVSTAEGTEENLSETSVAGFIVVTSVDVEHQVFTVLSPAPRPLPKNFLLIMDIRFMDLK”, the “soluble on expression in E. coli” value is listed as “soluble”. With “MSEEWEPKIVGFCCNWCTYGGADTAGVGRMQYPPSIRIIRVMCSGRIEPSFILKAFKEGADGVFIGGCHLGDCHYDAGNYKWQRRVMMLYDMLDELGIGRERVLHEWISASEGEKFQTKMNEIYDRIKALGPCTLNENLK” the entry was “not soluble”; with “MSEISIKRAHENEKDAEEDMEPATKKIKSDDVTEEQEKPEIVEKAEKVKSMKKEEAGSLKSPPNDEMESEFTHVLNELSKQKETIKKLLDDLRADNKKRKTHNIRTIFQRKD”, “not soluble”. To “MSEKQSNEQVEAFLNKESQWQEEYKYLRALIFNETELEEAYKWMHPCYTLNNKNVVLIHGFKNYVALLFHKGAILEDKYHTLIQQTEKVQAARQLRFENLTEIQARTEEIKYYLAEAIKAEKAGKKVEMKKTEEYVIPKELEAKFEEMPQLESSFYKLTPGRQHQYIYHIGQAKRSETKQKRVEKYINQILEGKGMHDK” belongs “not soluble”; to “MSEKWIPEIMTPLKQDIVKMPEIIRQASGIKIFGRKIKSIIFTTDIAIIRNTDAQAVIAVYPFTPHPAITKGIIEAADIPVFSGVGGGLTQGMRSAYMSLFAEAQGSMGVVLNGPTPIETIKMVDEAIDIPIISTVTSIHTPIDEKLAAGVDMINISAGKDTAATVRYFRGKYPELPIIATGGPTESSIHETIIAGANAITYTPPSNGELFSKKMKKYREQEKATDEE”, “soluble”. To “MSELFSNDNIFLNVNVNSQNEAIEKAGKALVDSGAVTDAYIQAMKDREQVVSTFMGNGLAIPHGTDEAKTNVIHSGLTLLQIPEGVDWDGEVVKVVVGIAGKDGEHLDLLSKIAITFSEEENVDRIVQAKSAEEIKQVFEEADA” belongs “not soluble”.

For the origin of these results see the DeepSol protein solubility set.
